Measurements: PMC2660430

B1: PfTrx1 (wild type thioredoxin) [P. falciparum] / PfSAHH (recombinant S-adenosyl-L-homocysteine hydrolase) [P. falciparum strain 3D7] (parent)
chain 1: MVKIVTSQAEFDSIISQNELVIVDFFAEWCGPCKRIAPFYEECSKTYTKMVFIKVDVDEVSEVTEKENITSMPTFKVYKNGSSVDTLLGANDSALKQLIEKYAA
chain 2: MVENKSKVKDISLAPFGKMQMEISENEMPGLMRIREEYGKDQPLKNAKITGCLHMTVECALLIETLQKLGAQIRWCSCNIYSTADYAAAAVSTLENVTVFAWKNETLEEYWWCVESALTWGDGDDNGPDMIVDDGGDATLLVHKGVEYEKLYEEKNILPDPEKAKNEEERCFLTLLKNSILKNPKKWTNIAKKIIGVSEETTTGVLRLKKMDKQNELLFTAINVNDAVTKQKYDNVYGCRHSLPDGLMRATDFLISGKIVVICGYGDVGKGCASSMKGLGARVYITEIDPICAIQAVMEGFNVVTLDEIVDKGDFFITCTGNVDVIKLEHLLKMKNNAVVGNIGHFDDEIQVNELFNYKGIHIENVKPQVDRITLPNGNKIIVLARGRLLNLGCATGHPAFVMSFSFCNQTFAQLDLWQNKDTNKYENKVYLLPKHLDEKVALYHLKKLNASLTELDDNQCQFLGVNKSGPFKSNEYRY
B2: Plrx (wild type plasmoredoxin, recombinant) [P. falciparum] / PfSAHH (recombinant S-adenosyl-L-homocysteine hydrolase) [P. falciparum strain 3D7] (parent)
chain 1: MACQVDNPPKTYPNDKTAEYEKYANYMNYLYYYQNNELKKIDSSYFKDKYLGLFFGASWCKYCVTFIDSLNIFKKNFPNVEIIYIPFDRTYQEYQSFLKNTNFYALPFDNYLYICKKYQIKNLPSFMLITPNNNILVKDAAQLIKTDEYINNLKSLIKNYIIHPKTFQFNNRFFDLFRN
chain 2: B1 chain 2

Variants of: B1
Test: SPR
Details: with PfSAHH (recombinant S-adenosyl-L-homocysteine hydrolase) [P. falciparum strain 3D7]; Maximum response at end of analyte injection; SAHH on the sensor surface oxidized with 0.5 mM DTNB; 30 µl of analyte, 10 µM in HBS buffer; pre-injection …; parent: 28; read off a plot

Row | Variant | response (RD (normalized))
1 | chain 1 C30S C33S | 21
2 | chain 1 C33S | 97

Variants of: B2
Test: SPR
Details: with PfSAHH (recombinant S-adenosyl-L-homocysteine hydrolase) [P. falciparum strain 3D7]; Maximum response at end of analyte injection; SAHH on the sensor surface oxidized with 0.5 mM DTNB; 30 µl of analyte, 10 µM in HBS buffer; pre-injection …; parent: 99; read off a plot

Row | Variant | response (RD (normalized))
3 | chain 1 C63S | 28
